According to the RNAGym collection of RNA variant scans (doi:10.1021/acssynbio.7b00057):

B1: Pistol ribozyme (parent)
chain: GGGUCGUUGUUCCAUAAUCGCGUGGAUAUGGCACGCAAGUUUCUACCGGGCACCGUAAAUGUCCGACUGGAGCCGUUCGGGCGGCUAUAAACAGACCUCAGGCCCGAAGCGUGGCGGCACCUGCCGCCGGUGGUAAAAAAGAUCGGAAGAGCACACGUCU

Variants of: B1
Experiment: aptazyme ON/OFF ratio, guanine; higher = stronger switching; co-transcriptional cleavage with and without guanine

In order of rising “aptazyme ON/OFF ratio” value:
1. GGGUCGAAUUCUGAUAAUCGCGUGGAUAUGGCACGCAAGUUUCUACCGGGCACCGUAAAUGUCCGACUGGAGCCGUUCGGGCGGCUAUAAACAGACCUCAGGCCCGAAGCGUGGCGGCACCUGCCGCCGGUGGUAAAAAAGAUCGGAAGAGCACACGUCU [U7A U8A G9U U11C C12U C13G]  1.02
2. GGGUCGAUCAGUAAUAAUCGCGUGGAUAUGGCACGCAAGUUUCUACCGGGCACCGUAAAUGUCCGACUGGAGCCGUUCGGGCGGCUAUAAACAGACCUCAGGCCCGAAGCGUGGCGGCACCUGCCGCCGGUGGUAAAAAAGAUCGGAAGAGCACACGUCU [U7A G9C U10A U11G C12U C13A]  1.03
3. GGGUCGGACUUUCAUAAUCGCGUGGAUAUGGCACGCAAGUUUCUACCGGGCACCGUAAAUGUCCGACUGGAGCCGUUCGGGCGGCUAUAAACAGACCUCAGGCCCGAAGCGUGGCGGCACCUGCCGCCGGUGGUAAAAAAGAUCGGAAGAGCACACGUCU [U7G U8A G9C C12U]  1.04
4. GGGUCGAACCUAAAUAAUCGCGUGGAUAUGGCACGCAAGUUUCUACCGGGCACCGUAAAUGUCCGACUGGAGCCGUUCGGGCGGCUAUAAACAGACCUCAGGCCCGAAGCGUGGCGGCACCUGCCGCCGGUGGUAAAAAAGAUCGGAAGAGCACACGUCU [U7A U8A G9C U10C C12A C13A]  1.04
5. GGGUCGUGACCAAAUAAUCGCGUGGAUAUGGCACGCAAGUUUCUACCGGGCACCGUAAAUGUCCGACUGGAGCCGUUCGGGCGGCUAUAAACAGACCUCAGGCCCGAAGCGUGGCGGCACCUGCCGCCGGUGGUAAAAAAGAUCGGAAGAGCACACGUCU [U8G G9A U10C U11C C12A C13A]  1.05
6. GGGUCGUGCUUGUAUAAUCGCGUGGAUAUGGCACGCAAGUUUCUACCGGGCACCGUAAAUGUCCGACUGGAGCCGUUCGGGCGGCUAUAAACAGACCUCAGGCCCGAAGCGUGGCGGCACCUGCCGCCGGUGGUAAAAAAGAUCGGAAGAGCACACGUCU [U8G G9C C12G C13U]  1.05
7. GGGUCGACGAUCCAUAAUCGCGUGGAUAUGGCACGCAAGUUUCUACCGGGCACCGUAAAUGUCCGACUGGAGCCGUUCGGGCGGCUAUAAACAGACCUCAGGCCCGAAGCGUGGCGGCACCUGCCGCCGGUGGUAAAAAAGAUCGGAAGAGCACACGUCU [U7A U8C U10A]  1.06
8. GGGUCGGAUUUUAAUAAUCGCGUGGAUAUGGCACGCAAGUUUCUACCGGGCACCGUAAAUGUCCGACUGGAGCCGUUCGGGCGGCUAUAAACAGACCUCAGGCCCGAAGCGUGGCGGCACCUGCCGCCGGUGGUAAAAAAGAUCGGAAGAGCACACGUCU [U7G U8A G9U C12U C13A]  1.06
9. GGGUCGUAUGGACAUAAUCGCGUGGAUAUGGCACGCAAGUUUCUACCGGGCACCGUAAAUGUCCGACUGGAGCCGUUCGGGCGGCUAUAAACAGACCUCAGGCCCGAAGCGUGGCGGCACCUGCCGCCGGUGGUAAAAAAGAUCGGAAGAGCACACGUCU [U8A G9U U10G U11G C12A]  1.07
10. GGGUCGUACUGUUAUAAUCGCGUGGAUAUGGCACGCAAGUUUCUACCGGGCACCGUAAAUGUCCGACUGGAGCCGUUCGGGCGGCUAUAAACAGACCUCAGGCCCGAAGCGUGGCGGCACCUGCCGCCGGUGGUAAAAAAGAUCGGAAGAGCACACGUCU [U8A G9C U11G C12U C13U]  1.08
11. GGGUCGAGCCAAGAUAAUCGCGUGGAUAUGGCACGCAAGUUUCUACCGGGCACCGUAAAUGUCCGACUGGAGCCGUUCGGGCGGCUAUAAACAGACCUCAGGCCCGAAGCGUGGCGGCACCUGCCGCCGGUGGUAAAAAAGAUCGGAAGAGCACACGUCU [U7A U8G G9C U10C U11A C12A C13G]  1.1
12. GGGUCGGUAGUUAAUAAUCGCGUGGAUAUGGCACGCAAGUUUCUACCGGGCACCGUAAAUGUCCGACUGGAGCCGUUCGGGCGGCUAUAAACAGACCUCAGGCCCGAAGCGUGGCGGCACCUGCCGCCGGUGGUAAAAAAGAUCGGAAGAGCACACGUCU [U7G G9A U10G C12U C13A]  1.11
13. GGGUCGCACCAAGAUAAUCGCGUGGAUAUGGCACGCAAGUUUCUACCGGGCACCGUAAAUGUCCGACUGGAGCCGUUCGGGCGGCUAUAAACAGACCUCAGGCCCGAAGCGUGGCGGCACCUGCCGCCGGUGGUAAAAAAGAUCGGAAGAGCACACGUCU [U7C U8A G9C U10C U11A C12A C13G]  1.11
14. GGGUCGUCUCGUAAUAAUCGCGUGGAUAUGGCACGCAAGUUUCUACCGGGCACCGUAAAUGUCCGACUGGAGCCGUUCGGGCGGCUAUAAACAGACCUCAGGCCCGAAGCGUGGCGGCACCUGCCGCCGGUGGUAAAAAAGAUCGGAAGAGCACACGUCU [U8C G9U U10C U11G C12U C13A]  1.13
15. GGGUCGGGUGACAAUAAUCGCGUGGAUAUGGCACGCAAGUUUCUACCGGGCACCGUAAAUGUCCGACUGGAGCCGUUCGGGCGGCUAUAAACAGACCUCAGGCCCGAAGCGUGGCGGCACCUGCCGCCGGUGGUAAAAAAGAUCGGAAGAGCACACGUCU [U7G U8G G9U U10G U11A C13A]  1.13
16. GGGUCGAUUCGCAAUAAUCGCGUGGAUAUGGCACGCAAGUUUCUACCGGGCACCGUAAAUGUCCGACUGGAGCCGUUCGGGCGGCUAUAAACAGACCUCAGGCCCGAAGCGUGGCGGCACCUGCCGCCGGUGGUAAAAAAGAUCGGAAGAGCACACGUCU [U7A G9U U10C U11G C13A]  1.13
17. GGGUCGCAUUUAAAUAAUCGCGUGGAUAUGGCACGCAAGUUUCUACCGGGCACCGUAAAUGUCCGACUGGAGCCGUUCGGGCGGCUAUAAACAGACCUCAGGCCCGAAGCGUGGCGGCACCUGCCGCCGGUGGUAAAAAAGAUCGGAAGAGCACACGUCU [U7C U8A G9U C12A C13A]  1.14
18. GGGUCGACGGUUGAUAAUCGCGUGGAUAUGGCACGCAAGUUUCUACCGGGCACCGUAAAUGUCCGACUGGAGCCGUUCGGGCGGCUAUAAACAGACCUCAGGCCCGAAGCGUGGCGGCACCUGCCGCCGGUGGUAAAAAAGAUCGGAAGAGCACACGUCU [U7A U8C U10G C12U C13G]  1.14
19. GGGUCGUUAGUAGAUAAUCGCGUGGAUAUGGCACGCAAGUUUCUACCGGGCACCGUAAAUGUCCGACUGGAGCCGUUCGGGCGGCUAUAAACAGACCUCAGGCCCGAAGCGUGGCGGCACCUGCCGCCGGUGGUAAAAAAGAUCGGAAGAGCACACGUCU [G9A U10G C12A C13G]  1.14
20. GGGUCGUGCGGAAAUAAUCGCGUGGAUAUGGCACGCAAGUUUCUACCGGGCACCGUAAAUGUCCGACUGGAGCCGUUCGGGCGGCUAUAAACAGACCUCAGGCCCGAAGCGUGGCGGCACCUGCCGCCGGUGGUAAAAAAGAUCGGAAGAGCACACGUCU [U8G G9C U10G U11G C12A C13A]  1.18
21. GGGUCGUAAUCAUAUAAUCGCGUGGAUAUGGCACGCAAGUUUCUACCGGGCACCGUAAAUGUCCGACUGGAGCCGUUCGGGCGGCUAUAAACAGACCUCAGGCCCGAAGCGUGGCGGCACCUGCCGCCGGUGGUAAAAAAGAUCGGAAGAGCACACGUCU [U8A G9A U11C C12A C13U]  1.2
22. GGGUCGGGUUGUGAUAAUCGCGUGGAUAUGGCACGCAAGUUUCUACCGGGCACCGUAAAUGUCCGACUGGAGCCGUUCGGGCGGCUAUAAACAGACCUCAGGCCCGAAGCGUGGCGGCACCUGCCGCCGGUGGUAAAAAAGAUCGGAAGAGCACACGUCU [U7G U8G G9U U11G C12U C13G]  1.2
23. GGGUCGGCCGAGGAUAAUCGCGUGGAUAUGGCACGCAAGUUUCUACCGGGCACCGUAAAUGUCCGACUGGAGCCGUUCGGGCGGCUAUAAACAGACCUCAGGCCCGAAGCGUGGCGGCACCUGCCGCCGGUGGUAAAAAAGAUCGGAAGAGCACACGUCU [U7G U8C G9C U10G U11A C12G C13G]  1.21
24. GGGUCGCAAAACCAUAAUCGCGUGGAUAUGGCACGCAAGUUUCUACCGGGCACCGUAAAUGUCCGACUGGAGCCGUUCGGGCGGCUAUAAACAGACCUCAGGCCCGAAGCGUGGCGGCACCUGCCGCCGGUGGUAAAAAAGAUCGGAAGAGCACACGUCU [U7C U8A G9A U10A U11A]  1.22
25. GGGUCGCGGAUAUAUAAUCGCGUGGAUAUGGCACGCAAGUUUCUACCGGGCACCGUAAAUGUCCGACUGGAGCCGUUCGGGCGGCUAUAAACAGACCUCAGGCCCGAAGCGUGGCGGCACCUGCCGCCGGUGGUAAAAAAGAUCGGAAGAGCACACGUCU [U7C U8G U10A C12A C13U]  1.23
26. GGGUCGCGGAGGCAUAAUCGCGUGGAUAUGGCACGCAAGUUUCUACCGGGCACCGUAAAUGUCCGACUGGAGCCGUUCGGGCGGCUAUAAACAGACCUCAGGCCCGAAGCGUGGCGGCACCUGCCGCCGGUGGUAAAAAAGAUCGGAAGAGCACACGUCU [U7C U8G U10A U11G C12G]  1.23
27. GGGUCGCUGCAAGAUAAUCGCGUGGAUAUGGCACGCAAGUUUCUACCGGGCACCGUAAAUGUCCGACUGGAGCCGUUCGGGCGGCUAUAAACAGACCUCAGGCCCGAAGCGUGGCGGCACCUGCCGCCGGUGGUAAAAAAGAUCGGAAGAGCACACGUCU [U7C U10C U11A C12A C13G]  1.26
28. GGGUCGUAUAAGAAUAAUCGCGUGGAUAUGGCACGCAAGUUUCUACCGGGCACCGUAAAUGUCCGACUGGAGCCGUUCGGGCGGCUAUAAACAGACCUCAGGCCCGAAGCGUGGCGGCACCUGCCGCCGGUGGUAAAAAAGAUCGGAAGAGCACACGUCU [U8A G9U U10A U11A C12G C13A]  1.27
29. GGGUCGACGACGGAUAAUCGCGUGGAUAUGGCACGCAAGUUUCUACCGGGCACCGUAAAUGUCCGACUGGAGCCGUUCGGGCGGCUAUAAACAGACCUCAGGCCCGAAGCGUGGCGGCACCUGCCGCCGGUGGUAAAAAAGAUCGGAAGAGCACACGUCU [U7A U8C U10A U11C C12G C13G]  1.27
30. GGGUCGAUAGUUUAUAAUCGCGUGGAUAUGGCACGCAAGUUUCUACCGGGCACCGUAAAUGUCCGACUGGAGCCGUUCGGGCGGCUAUAAACAGACCUCAGGCCCGAAGCGUGGCGGCACCUGCCGCCGGUGGUAAAAAAGAUCGGAAGAGCACACGUCU [U7A G9A U10G C12U C13U]  1.32
31. GGGUCGGGUGUGCAUAAUCGCGUGGAUAUGGCACGCAAGUUUCUACCGGGCACCGUAAAUGUCCGACUGGAGCCGUUCGGGCGGCUAUAAACAGACCUCAGGCCCGAAGCGUGGCGGCACCUGCCGCCGGUGGUAAAAAAGAUCGGAAGAGCACACGUCU [U7G U8G G9U U10G C12G]  1.33
32. GGGUCGUUACUUUAUAAUCGCGUGGAUAUGGCACGCAAGUUUCUACCGGGCACCGUAAAUGUCCGACUGGAGCCGUUCGGGCGGCUAUAAACAGACCUCAGGCCCGAAGCGUGGCGGCACCUGCCGCCGGUGGUAAAAAAGAUCGGAAGAGCACACGUCU [G9A U10C C12U C13U]  1.34
33. GGGUCGGCUUGCCAUAAUCGCGUGGAUAUGGCACGCAAGUUUCUACCGGGCACCGUAAAUGUCCGACUGGAGCCGUUCGGGCGGCUAUAAACAGACCUCAGGCCCGAAGCGUGGCGGCACCUGCCGCCGGUGGUAAAAAAGAUCGGAAGAGCACACGUCU [U7G U8C G9U U11G]  1.36
34. GGGUCGUCUUUACAUAAUCGCGUGGAUAUGGCACGCAAGUUUCUACCGGGCACCGUAAAUGUCCGACUGGAGCCGUUCGGGCGGCUAUAAACAGACCUCAGGCCCGAAGCGUGGCGGCACCUGCCGCCGGUGGUAAAAAAGAUCGGAAGAGCACACGUCU [U8C G9U C12A]  1.37
35. GGGUCGGGGCUACAUAAUCGCGUGGAUAUGGCACGCAAGUUUCUACCGGGCACCGUAAAUGUCCGACUGGAGCCGUUCGGGCGGCUAUAAACAGACCUCAGGCCCGAAGCGUGGCGGCACCUGCCGCCGGUGGUAAAAAAGAUCGGAAGAGCACACGUCU [U7G U8G U10C C12A]  1.49
36. GGGUCGGCUCAACAUAAUCGCGUGGAUAUGGCACGCAAGUUUCUACCGGGCACCGUAAAUGUCCGACUGGAGCCGUUCGGGCGGCUAUAAACAGACCUCAGGCCCGAAGCGUGGCGGCACCUGCCGCCGGUGGUAAAAAAGAUCGGAAGAGCACACGUCU [U7G U8C G9U U10C U11A C12A]  2.7
